Data taken from patent US20060073576A1.

Biological target: gp120 (strain not stated)
Assay: competitive ELISA

In the case of “CD4M8 (double mutant of CD4M3: Gln20Ala, Thr25Ala) (designed binder)”, the fold increase in binding affinity over CD4M3 is reported as > 10 fold.
